Experimental findings from patent WO2008140316A1 are described below.

The experiment addresses human CD40 receptor on monocytes (human) (UniProt P25942). The experiment is described as follows: cell-based or functional assay.
Sequence of UniProt P25942 (P25942 21-277): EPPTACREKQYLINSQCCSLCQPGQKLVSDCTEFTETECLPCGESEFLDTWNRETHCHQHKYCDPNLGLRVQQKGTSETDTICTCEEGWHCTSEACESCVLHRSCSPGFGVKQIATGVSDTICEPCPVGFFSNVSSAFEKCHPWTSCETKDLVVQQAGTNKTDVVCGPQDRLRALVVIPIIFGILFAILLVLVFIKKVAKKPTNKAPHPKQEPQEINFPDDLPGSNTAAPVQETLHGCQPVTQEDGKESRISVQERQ

In turn, “clone 64 (agonist anti-human CD40 monoclonal antibody, PanGenetics, The Netherlands)” had an IL-1β (pg/mL), Clone 64+IFN-γ, MDS CD14+ cells (Table 3) of 18 pg/mL; an IL-1β (pg/mL), Clone 64+IFN-γ, donor CD14+ cells (Table 3) of 13 pg/mL; an IL-6 (pg/mL), Clone 64+IFN-γ, MDS CD14+ cells (Table 3) of 1210 pg/mL; an IL-6 (pg/mL), Clone 64+IFN-γ, donor CD14+ cells (Table 3) of 1490 pg/mL. Also, the IL-10 (pg/mL), Clone 64+IFN-γ, MDS CD14+ cells (Table 3) is 1650 pg/mL; the IL-10 (pg/mL), Clone 64+IFN-γ, donor CD14+ cells (Table 3) stood at 1170 pg/mL; the TNF-α (pg/mL), Clone 64+IFN-γ, MDS CD14+ cells (Table 3) is 293 pg/mL; the TNF-α (pg/mL), Clone 64+IFN-γ, donor CD14+ cells (Table 3) was determined as 52 pg/mL. For the same substance, the TNF-α production by CD14+ monocytes from MDS patients, clone 64 + IFN-γ, 24 h, ELISA turned out to be 449 pg/mL and the TNF-α production by CD14+ monocytes from normal controls, clone 64 + IFN-γ, 24 h, ELISA is 67 pg/mL.
